Test results taken from paper PMC2646663 (Biochemistry, 2008).
Each block holds one binder with its values, some of them ahead of it.

Legend:
[1] = target: T1, Formylglycinamide ribonucleotide amidotransferase (small PurL) from Thermotoga maritima (Thermotoga maritima, UniProt Q9X0X3 1-603); assay: crystal structure
T1 sequence: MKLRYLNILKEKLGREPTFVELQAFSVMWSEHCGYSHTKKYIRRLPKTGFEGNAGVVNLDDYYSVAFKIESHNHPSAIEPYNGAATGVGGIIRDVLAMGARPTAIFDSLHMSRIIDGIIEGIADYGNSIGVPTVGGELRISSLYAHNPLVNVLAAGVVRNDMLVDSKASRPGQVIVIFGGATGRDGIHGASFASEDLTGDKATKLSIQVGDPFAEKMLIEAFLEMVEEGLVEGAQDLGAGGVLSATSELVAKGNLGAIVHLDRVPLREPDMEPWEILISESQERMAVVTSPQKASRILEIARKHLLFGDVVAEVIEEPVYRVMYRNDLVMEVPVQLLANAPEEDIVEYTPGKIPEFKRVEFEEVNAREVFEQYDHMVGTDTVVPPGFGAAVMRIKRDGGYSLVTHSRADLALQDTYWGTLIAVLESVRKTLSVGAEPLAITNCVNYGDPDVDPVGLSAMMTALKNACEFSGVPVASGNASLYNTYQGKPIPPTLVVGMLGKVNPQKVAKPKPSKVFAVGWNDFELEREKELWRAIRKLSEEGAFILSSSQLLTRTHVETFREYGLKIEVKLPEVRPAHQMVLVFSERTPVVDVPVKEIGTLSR

crystal structure = target: the molecule itself; assay: crystal structure

stoichiometry N [1]: 2 TmPurS per TmPurL
B1: PurS from Thermotoga maritima (natural protein)
chain: MPLFKFAIDVQYRSNVRDPRGETIERVLREEKGLPVKKLRLGKSIHLEVEAENKEKAYEIVKKACEELLVNPVVEEYEVREL
stoichiometry N (crystal structure): 2

stoichiometry N [1]: 1 TmPurQ per TmPurL
B2: PurQ (glutaminase subunit of FGAR amidotransferase) from Thermotoga maritima (enzyme)
chain: MKPRACVVVYPGSNCDRDAYHALEINGFEPSYVGLDDKLDDYELIILPGGFSYGDYLRPGAVAAREKIAFEIAKAAERGKLIMGICNGFQILIEMGLLKGALLQNSSGKFICKWVDLIVENNDTPFTNAFEKGEKIRIPIAHGFGRYVKIDDVNVVLRYVKDVNGSDERIAGVLNESGNVFGLMPHPERAVEELIGGEDGKKVFQSILNYLKR
modifications: glutamyl thioester intermediate covalently linked to Cys86 (seen in the crystal structure)
